# Test results from patent publication US12162911B2, “Pulmonary administration of pyocins for treating bacterial respiratory infections” (priority 2014, dated 2024).
# Entries after “also recorded” stand apart in the source; their conditions may differ.
# B1: Pyocin S5: S-type pyocin, SEQ ID NO: 13; binds FptA, pore-forming effector (protein, listed as Pseudomonas aeruginosa)
# chain: MSNDNEVPGSMVIVAQGPDDQYAYEVPPIDSAAVAGNMFGDLIQREIYLQKNIYYPVRSIFEQGTKEKKEINKKVSDQVDGLLKQITQGKREATRQERVDVMSAVLHKMESDLEGYKKTFTKGPFIDYEKQSSLSIYEAWVKIWEKNSWEERKKYPFQQLVRDELERAVAYYKQDSLSEAVKVLRQELNKQKALKEKEDLSQLERDYRTRKANLEMKVQSELDQAGSALPPLVSPTPEQWLERATRLVTQAIADKKQLQTTNNTLIKNSPTPLEKQKAIYNGELLVDEIASLQARLVKLNAETTRRRTEAERKAAEEQALQDAIKFTADFYKEVTEKFGARTSEMARQLAEGARGKNIRSSAEAIKSFEKHKDALNKKLSLKDRQAIAKAFDSLDKQMMAKSLEKFSKGFGVVGKAIDAASLYQEFKISTETGDWKPFFVKIETLAAGAAASWLVGIAFATATATPIGILGFALVMAVTGAMIDEDLLEKANNLVISI
# How the values were obtained:
# [1] = test system: P. aeruginosa P5 (mucoid); test: Mouse model of acute lung infection, P. aeruginosa P5; format: in vivo, Pseudomonas aeruginosa
# Description: (§1) Model of acute lung infection. Female C57/BL6 mice were inoculated intranasally with 25 μl of bacterial culture containing approximately 10^7 CFU of the selected P. aeruginosa strain^36. Antibiotic treatments were administered at either 6 h pre-infection or 1 h post-infection and were administered only once. Pyocins or tobramycin dissolved in PBS were administered via intranasal administration as described above. Two different end-points were used in these experiments. In order to determine a reduction in the bacterial load of the lungs compared to the untreated controls, all mice in the experiment were culled by carbon dioxide asphyxiation at the same time; 4-6 h post infection. To determine if mice could survive infection after pyocin or tobramycin treatment, mice were monitored closely, culled by carbon dioxide asphyxiation when required as determined by a scoring system or culled at the pre-determined 24 h time point. Uninfected mice, treated with pyocins, were used as controls in the first series of experiments in order to ensure no adverse effects from pyocin treatment. These controls were stopped in later experiments in order to reduce the number of animals used, once it was clear that the pyocins were not harmful. For CFU determination, lungs were removed aseptically and kept on ice in 750 μl of PBS until homogenised. Serial 10-fold dilutions of the homogenised lung were plated on Pseudomonas selective agar (20 g peptone, 1.5 g K2HPO4, 1.5 g MgSO4·7H2O, 10 ml glycerol, 15 g agar, 0.025 g Irgasan per litre) and incubated at 37° C. for 24 h and then room temperature for 24 h before the colonies were counted.
# (§2) Since strains of P. aeruginosa are phenotypically diverse, we tested the efficacy of the pyocins against three additional isolates: P. aeruginosa P17 and P. aeruginosa P5 (mucoid), both from cystic fibrosis patients and P. aeruginosa E2, an environmental isolate. Pyocin S2 was not active against P. aeruginosa P5 or P. aeruginosa E2 in vitro therefore was not used to treat these strains in vivo and similarly pyocin L1 was not used against P. aeruginosa P17. […] Lung homogenates from P. aeruginosa E2-infected AP41-treated mice contained high levels of viable bacteria, reduced only 10-fold relative to control mice (Table 1). […] Thus, pyocins show strong efficacy against diverse strains of P. aeruginosa with pyocin S5 treatment displaying the largest effect on reducing bacterial load.
# P. aeruginosa P17 = test: Mouse model of acute lung infection, P. aeruginosa P17; format: in vivo, Pseudomonas aeruginosa
# Description: as §1, §2
# P8AP41T [2] = test: Mouse model of acute lung infection, AP41 tolerant strain P8AP41T; format: in vivo, Pseudomonas aeruginosa; settings: 3 mg ml^−1 1 h post-infection
# Description: as §1
# (§3) In order to determine if pyocin tolerance or resistance was acquired upon pyocin treatment in vivo, viable bacteria recovered from mice that survived infection to the 24 h end-point, in all experiments discussed in this work, were tested for pyocin susceptibility. From these experiments no pyocin resistant colonies were isolated. […] Importantly, sensitivity to pyocins S5 and L1 were unaffected in vitro in this pyocin AP41-tolerant strain (FIG. 3a) and this was also shown to be the case in vivo when mice were infected with P8AP41T.
# [3] = Pyocin S5-specific antibody titers by indirect ELISA
# Description: Determination of pyocin S5-specific antibody titers by indirect ELISA. For analysis of IgG and IgA responses, blood was obtained by cardiac puncture immediately after carbon dioxide asphyxiation. Serum was obtained by centrifugation of samples at 13,500 g for 10 min followed by collection of the supernatant. Serum was stored at −80° C. Greiner 96-well plates (MaxiSorp) were coated with purified recombinant pyocin S5 (7.5 μg ml^−1, 50 μl/well) protein in PBS overnight at 4° C. The plates were washed three times with phosphate buffered saline+0.05% TWEEN20 (PBST) and then blocked for 1 h at 37° C. with 150 μl of blocking buffer (1% bovine serum albumin (BSA) in PBS). After washing, five-fold serially diluted samples were added, starting at a dilution of 1/50 in blocking buffer, and incubated for 2 h at 37° C. Serum from mice given pyocin S5+Freunds complete/incomplete subcutaneously three times over four weeks was used as a positive control and uncoated wells were used as negative controls. Serum from individual mice were analysed and replicate samples were carried out on separate days. After washing with PBST, 50 μl of anti-mouse IgG (Fc specific)-peroxidase antibody ((1/1000 dilution) Sigma, UK) or anti-mouse IgA (α-chain specific)-peroxidase antibody ((1/250 dilution) Sigma, UK) in PBST/0.1% BSA was added and plates were incubated for 1 h at 37° C. Plates were developed using […] OPD (o-Phenylenediamine dihydrochloride) tablets (Sigma, UK) and reactions were stopped using 3 M HCl. Optical densities (ODs) were read at 450 nm using a FLUOstar OPTIMA plate reader (BMG labtech, Germany).
# P. aeruginosa P8 = test: Mouse model of acute lung infection, P. aeruginosa P8; format: in vivo, Pseudomonas aeruginosa
# Description: Study design. […] For all experiments 6 week-old, female, murine pathogen free C57/BL6 mice weighing 15-21 g were used (Charles Rivers Laboratories, UK). All mice received food and water ad libitum and were housed in groups during the experiments. Power calculations were used to predetermine sample size (n=6, for all treatment experiments). Mice were culled when required as determined by a scoring system or culled at the pre-determined 24 h time point. All mice, including outliers were included in the statistical analysis. Experiments were either carried out once only or repeated once (defined for each experiment).
# as §1
# P. aeruginosa E2 = test: Mouse model of acute lung infection, P. aeruginosa E2; format: in vivo, Pseudomonas aeruginosa
# Description: as §1, §2
# [4] = test system: collection of diverse environmental and clinical isolates; test: Activity against a collection of diverse environmental and clinical isolates; format: cell-based, Pseudomonas aeruginosa
# P8AP41T [5] = test: Pyocin sensitivity in vitro (spot tests) of strain P8AP41T; format: cell-based, Pseudomonas aeruginosa; settings: spot tests, FIG. 3a
# Description: Pyocin sensitivity assays: overlay spot plate method. Soft agar overlay spot plates were performed using the method of ^35. 150 μl of test strain culture at OD600 nm=0.6 was added to 6 ml of 0.8% soft agar and poured over an LB agar plate. 5 μl of bacteriocin, lung homogenate or blood at varying concentrations was spotted onto the plates and incubated for 24 h at 37° C.
# as §3
# [6] = mice repeatedly exposed I.N., 75 μg/dose three times (FIG. 8b)
# [7] = mice repeatedly exposed I.P., 75 μg/dose three times (FIG. 8d)
# [8] = survival to 24 h, treatment 1 h post-infection
molecule,measurement,setting,value
B1,survival / protection,"[1]; pyocin 3 mg ml^−1, endpoint 24 h, infected controls culled at 4.5 h",survived until the 24 h endpoint
same,"bacterial count in lung, P5","[1]; pyocin 3 mg ml^−1, treated mice survived to 24 h, no treatment 1.7 × 10^5 CFU/lung",No colonies
same,survival / protection,"P. aeruginosa P17; pyocin 3 mg ml^−1, endpoint 24 h, infected controls culled at 4 h",survived until the 24 h endpoint
same,"bacterial count in lung, P17","P. aeruginosa P17; pyocin 3 mg ml^−1, treated mice survived to 24 h, no treatment 4.4 × 10^5 CFU/lung",No colonies
same,bacterial numbers in lung homogenates,P8AP41T [2]; 24 h (FIG. 3b),significantly reduced bacterial numbers; also recorded: No colonies were recovered
same,survival,"P8AP41T [2]; endpoint 24 h, PBS controls culled 6 h post-infection (FIG. 3b)",survived until the endpoint of the experiment at 24 h
same,pyocin-S5 specific IgA in serum,[3]; [6],no IgA antibodies detected
same,"pyocin-S5 specific IgG, fold less than the Freunds complete/incomplete control group",[3]; [6],10 fold
same,pyocin S5-specific IgA in serum,[3]; [7],no pyocin S5-specific IgA was detected
same,"pyocin S5-specific IgG, fold less than the Freunds complete/incomplete control group",[3]; [7],1000 fold
same,survival,"P. aeruginosa P8; 30 ng ml^−1, 1 h post-infection (FIG. 2b)",survived to 24 h
same,bacterial counts compared to the PBS controls,"P. aeruginosa P8; 30 ng ml^−1, 24 h post-infection (FIG. 2b)",significantly reduced the bacterial counts
same,bacteria recovered from lung,"P. aeruginosa P8; 3 mg ml^−1 1 h post-infection, 24 h post-infection, six mice (FIG. 1d)",no bacteria recovered; also recorded: No colonies were recovered
same,treated mice from which viable bacteria were recovered,"P. aeruginosa P8; 3 mg ml^−1 intranasal 1 h post-infection, culled 4.5 h post-infection (FIG. 1c)",three out of six
same,viable bacteria recovered from lung,"P. aeruginosa P8; 3 mg ml^−1 intranasal 6 h pre-infection, 24 h post-infection (FIG. 1b)",no viable bacteria were recovered; also recorded: No colonies were recovered
same,viable bacteria recovered from lung homogenates,"P. aeruginosa P8; C57/BL6 mice, 3 mg ml^−1 intranasal 6 h pre-infection, culled 4 h post-infection (FIG. 1a)",no viable bacteria were recovered; also recorded: No colonies were recovered
same,concentration at which effective in this model,P. aeruginosa P8; in vivo,lower than 1 nM
same,Lowest active concentration tested,P. aeruginosa P8; lowest concentration tested with which the treated mice survived to 24 h,30 ng/mL
same,potency relative to tobramycin,P. aeruginosa P8; minimum effective concentrations compared,at least 100 fold
same,Corresponding molarity,P. aeruginosa P8; molarity of lowest active concentration tested,535 pM
same,bacterial load compared with tobramycin,"P. aeruginosa P8; pyocin S5 0.3 or 3 mg ml^−1 versus tobramycin 30 or 3 mg ml^−1, 1 h post-infection, culled 4.5 h (FIG. 2a)",reduced the bacterial load to a greater extent than tobramycin
same,bacterial counts compared with tobramycin,P. aeruginosa P8; repeat of FIG. 2a experiment (FIG. 6),reduced bacterial counts to a greater extent than tobramycin
same,lowest concentration at which effective (lower limit),P. aeruginosa P8; [8],> 300 pg/mL
same,lowest concentration at which effective (upper limit),P. aeruginosa P8; [8],≤ 30 ng/mL
same,survival / protection,"P. aeruginosa E2; pyocin 3 mg ml^−1, endpoint 24 h, infected controls culled at 5.5 h",survived until the 24 h endpoint
same,"bacterial count in lung, E2","P. aeruginosa E2; pyocin 3 mg ml^−1, treated mice survived to 24 h, no treatment 1.5 × 10^5 CFU/lung",No colonies
same,strains against which active,[4],87%
same,sensitivity of the pyocin AP41-tolerant strain in vitro,P8AP41T [5],unaffected
